Experimental data from patent US20210102192A1 (TWIST BIOSCIENCE, published 2021).
Where a chain is given by its changes, count along the chain named. Where two headings read alike, the source gives them in different places.

Assays:
[1] = biological target: T1, Prostaglandin D2 receptor 2 (CRTH2R) (human, UniProt Q9Y5Y4 1-395); experiment: cell-based or functional assay
T1 sequence: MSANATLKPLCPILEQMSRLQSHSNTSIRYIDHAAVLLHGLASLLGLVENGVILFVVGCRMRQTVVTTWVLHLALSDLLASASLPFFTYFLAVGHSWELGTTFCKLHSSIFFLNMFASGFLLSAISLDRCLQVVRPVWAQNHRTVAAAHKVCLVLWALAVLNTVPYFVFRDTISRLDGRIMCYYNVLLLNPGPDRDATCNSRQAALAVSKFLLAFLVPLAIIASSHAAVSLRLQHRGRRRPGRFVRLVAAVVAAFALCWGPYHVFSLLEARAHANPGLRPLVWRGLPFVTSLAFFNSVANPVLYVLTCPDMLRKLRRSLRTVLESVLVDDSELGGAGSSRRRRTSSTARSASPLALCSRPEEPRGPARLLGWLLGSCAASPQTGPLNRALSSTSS

[2] = biological target: T2, Prostaglandin D2 receptor 2 (CRTH2R) (UniProt Q9Y5Y4 1-395); experiment: FACS binding; CHO CRTH2R-positive cells
T2 chain: T1 sequence

[3] = biological target: T2, Prostaglandin D2 receptor 2 (CRTH2R); experiment: FACS binding; CHO CRTH2R-positive cells
[4] = biological target: T2, Prostaglandin D2 receptor 2 (CRTH2R); experiment: FACS binding; CHO CRTH2R-positive cells
[5] = biological target: T2, Prostaglandin D2 receptor 2 (CRTH2R); experiment: FACS binding; CHO CRTH2R-positive cells

B1: CRTH2-74 (antibody)
VH: QVQLVESGGGVVQPGRSLRLSCAASGFSFSEYGIHWVRQAPGKGLEWVAVISYEGSNEYYADSVKGRFTISRDNSKNTLYLQMNSLRAEDTAVYYCARANQHFGPVAGGATPSEEPGSQLTRAELGWDAPPGQESLADELLQLGTEHGYHYYGMDVWGQGTLVTVSS
VL: QSVLTQPPSVSAAPGQKVTISCSGSTSNIGKNYVSWYQQLPGTAPKLLIYDDDERPSGIPDRFSGSMSGTSATLGITGLQTGDEADYYCEAWDADLSGAVFGGGTKLTVL
For B1, the “antagonist activity in PGD2-induced cAMP assay at 33 nM IgG” value (from here on “antagonist activity”) [1] was over 20% and the EC50 [2] was 8.61 nM.

B2: CRTH2-19 (antibody, V domains shown)
VH: QVQLVQSGAEVKKPGSSVKVSCKASGGTFSSHAINWVRQAPGQGLEWMGRIIPIVGTTTYAQKFQGRVTITADESTSTAYMELSSLRSEDTAVYYCARDMYYDFDYFGLTLTGDRNDDEVVPADDAFDIWGQGTLVTVSS
VL: QSALTQPASVSGSPGQSITISCTGTSSDVGGYDYVTWYQQHPGKAPKLMIYDVDTRPSGVSNRFSGSKSGNTASLTISGLQAEDEADYYCSSYTTSTSYVFGGGTKLTVL
B2 was tested, and the “antagonist activity” value [1] was over 20% and the EC50 [2] was 16.7 nM.

B3: CRTH2 57 (antibody, V domains shown)
VH: QVQLVQSGAEVKKPGSSVKVSCKASGGTFSSYAMSWVRQAPGQGLEWMGGIIPLFGTTDYAQKFQGRVTITADESTSTAYMELSSLRSEDTAVYYCARANQHFVKIQGAPVSTPVPGFGTTGYHYYGMDVWGQGTLVTVSS
VL: QSVLTQPPSVSAAPGQKVTISCSGSSSNIEDNYVSWYQQLPGTAPKLLIYDNFKRPSGIPDRFSGSKSGTSATLGITGLQTGDEADYYCGTWDTSLSAALFGGGTKLTVL
With B3 the EC50 [3] was 158 nM.

B4: CRTH2-45 (antibody)
VH: QVQLVESGGGVVQPGRSLRLSCAASGFTFSHYAMHWVRQAPGKGLEWVADISHEGSNKYYADSVKGRFTISRDNSKNTLYLQMNSLRAEDTAVYYCARDGRGSLPRPKGGPTSGGGFSTNIGYGFVVQSYDSSEDSGGAFDIWGQGTLVTVSS
VL: QSVLTQPPSVSAAPGQKVTISCSGTSSNIENNYVSWYQQLPGTAPKLLIYDNVKRPSGIPDRFSGSKSGTSATLGITGLQTGDEADYYCGTWDNTVSAPWVFGGGTKLTVL
For B4, the “antagonist activity” value [1] was over 20% and the EC50 [4] was 23.2 nM.

B5: CRTH2-32 (antibody, V domains shown)
VH: QVQLVESGGGVVQPGRSLRLSCAASGFTFSKHGMHWVRQAPGKGLEWVAFISYEGSEKYYADSVKGRFTISRDNSKNTLYLQMNSLRAEDTAVYYCARDMYYDFHYSTVGATYYYYLGSETEVVPADDAFDIWGQGTLVTVSS
VL: QSALTQPASVSGSPGQSITISCTGTSSGVGGYDYVSWYQQHPGKAPKLMIYDDNNRPSGVSNRFSGSKSGNTASLTISGLQAEDEADYYCSSYTGSSTLYVFGGGTKLTVL
With B5 the “IC50 fold difference of the PGD2 dose response curve (cAMP assay, 100 nM IgG)” value (“IC50 fold difference” below) [1] was over 2 fold and the EC50 [4] was 12.4 nM.

B6: CRTH2-15 (antibody, V domains shown)
VH: QVQLVQSGAEVKKPGSSVKVSCKASGGTFSTYAIDWVRQAPGQGLEWMGGIIPLFGSPNYAQKFQGRVTITADESTSTAYMELSSLRSEDTAVYYCARANQHFFLYEGTSSSWLHVGHARYGYHYYGMDVWGQGTLVTVSS
VL: B3 VL with S26G, E30G, D31S, F53I, K54R, G90A, T91A, S95R, A99G, L100V
With B6 the EC50 [5] was 73.8 nM and the “antagonist activity” value [1] was over 20%.

B7: CRTH2 66 (antibody)
chain 1: QVQLVESGGGVVQPGRSLRLSCAASGFDFSGYGMHWVRQAPGKGLEWVAVISYEGSNKFYADSVKGRFTISRDNSKNTLYLQMNSLRAEDTAVYYCARDLRELECEEWTIEVHGQEFAVHQDRGGVFSRGPCVDPRGVAGSFDVWGQGTLVTVSS
chain 2: EIVMTQSPATLSVSPGERATLSCRASQGVGSNLAWYQQKPGQAPRLLIYRTSIRATGIPARFSGSGSGTEFTLTISSLQSEDFAVYYCQQYYSWPPLTFGGGTKVEIK
B7 showed an EC50 [3] of 3.95 nM.

B8: CRTH2-50 (antibody, V domains shown)
VH: QVQLVQSGAEVKKPGSSVKVSCKASGGTFSSYALSWVRKAPGQGLEWMGGTIPIFGTVNYAQKFQGRVTITADESTSTAYMELSSLRSEDTAVYYCARANQHFTRVIGQPSPAVPSRGYIYHGYHYYGMDVWGQGTLVTVSS
VL: QSALTQPASVSGSPGQSITISCTGTSSDIGGYNFVSWYQQHPGKAPKLMIYDVSNRPQGVSNRFSGSKSGNTASLTISGLQAEDEADYYCSSYTSSNTYVVFGGGTKLTVL
For B8, the EC50 [5] was 19.6 nM and the “IC50 fold difference” value [1] was over 2 fold.

B9: CRTH2 35 (antibody, V domains shown)
VH: QVQLVQSGAEVKKPGSSVKVSCKASGGTFRSYAISWVRQAPGQGLEWMGGIIPISGTTNYAQKFQGRVTITADESTSTAYMELSSLRSEDTAVYYCARANQHFTRIFGNYQIYFGHFGYHYYGMDVWGQGTLVTVSS
VL: B8 VL with N33E, D52G, N55R, Q58S, S91G, N97S, Y99P, V100Y
In the case of B9, the EC50 [4] is reported as 12.6 nM.

B10: CRTH2-60 (antibody, V domains shown)
VH: QVQLVQSGAEVKKPGSSVKVSCKASGGTFKNYAINWVRQAPGQGLEWMGAIIPKFGAANYAQKFQGRVTITADESTSTAYMELSSLRSEDTAVYYCARANQHFSAVRGLAFGYGYRIGGYHYYGMDVWGQGTLVTVSS
VL: QSVLTQPPSVSAAPGQKVTISCSGSTSNIGINYVSWYQQLPGTAPKLLIYENRKRPSGIPDRFSGSKSGTSATLGITGLQTGDEADYYCATWDASLKNLVFGGGTKLTVL
With B10 the “antagonist activity” value [1] was over 20%.

B11: CRTH2-70 (antibody, V domains shown)
VH: QVQLVQSGAEVKKPGSSVKVSCKASGGTFSNHAIIWVRQAPGQGLEWMGGIIPIFGTPSYAQKFQGRVTITADESTSTAYMELSSLRSEDTAVYYCARDMYYDFDVISAGVVGAGNPEVVPADDAFDIWGQGTLVTVSS
VL: QSVLTQPPSVSAAPGQKVTISCSGSTSNIGNNFVSWYQQLPGTAPKLLIYDNEKRPSGIPDRFSGSKSGTSATLGITGLQTGDEADYYCGTWDERQTDESYVFGGGTKLTVL
B11 was tested, and the “antagonist activity” value [1] was over 20%.

B12: CRTH2-9 (antibody, V domains shown)
VH: QVQLVQSGAEVKKPGSSVKVSCKASGGTFSSYAISWVRQAPGQGLEWMGGIIPIFGTANYAQKFQGRVTITADESTSTAYMELSSLRSEDTAVYYCARDMYYDFWLGDQSTGSLIGAEVVPADDAFDIWGQGTLVTVSS
VL: B10 VL with I31N, R53D, K54E, A94T, S95R, K97S, N98A, L99V
In the case of B12, the “IC50 fold difference” value [1] is reported as over 2 fold and the “antagonist activity” value [1] is reported as over 20%.

B13: CRTH2-27 (antibody, V domains shown)
VH: QVQLVESGGGVVQPGRSLRLSCAASGFTFDNYGMHWVRQAPGKGLEWVAVISYEGSNKKYADSVKGRFTISRDNSKNTLYLQMNSLRAEDTAVYYCARDMYYDFGSIYGEDVVGELPEVVPADDAFDIWGQGTLVTVSS
VL: QSALTQPASVSGSPGQSITISCTGTSNDVGAYNFVSWYQQHPGKAPKLMIYDISNRPSGVSNRFSGSKSGNTASLTISGLQAEDEADYYCSSYTRSNTRVFGGGTKLTVL
With B13 the “IC50 fold difference” value [1] was over 2 fold.

B14: CRTH2-42 (antibody)
VH: QVQLVESGGGVVQPGRSLRLSCAASGFAFSSYAMHWVRQAPGKGLEWVAVISYEGSNEYYADSVKGRFTISRDNSKNTLYLQMNSLRAEDTAVYYCARDLRELECEEWTVLQYGKFHMRWAESGEGSLSRGPCVDPRGVAGSFDVWGQGTLVTVSS
VL: B5 VL with G28D, D33R, D52N, D53V, N55Y, T94R, G95S, Y100G
In the case of B14, the “IC50 fold difference” value [1] is reported as over 2 fold and the “antagonist activity” value [1] is reported as over 20%.

B15: CRTH2-24 (antibody, V domains shown)
VH: QVQLVQSGAEVKKPGSSVKVSCKASGGSFSNYGISWVRQAPGQGLEWMGGIIPLIGTANYAQKFQGRVTITADESTSTAYMELSSLRSEDTAVYYCARDMYYDFTLGPQSIGPLGEVVPADDAFDIWGQGTLVTVSS
VL: QSVLTQPPSVSAAPGQKVTISCSGSSSNIGNNFVSWYQQLPGTAPKLLIYDNIQRPSGIPDRFSGSKSGTSATLGITGLQTGDEADYYCGTWDTSLSAVVFGGGTKLTVLR
In the case of B15, the “antagonist activity” value [1] is reported as over 20%.

B16: CRTH2-28 (antibody, V domains shown)
VH: QVQLVQSGAEVKKPGSSVNVSCKASGGTFSDYAFSWVRQAPGQGLEWMGAIIPFFGTVNYAQKFQGRVTITADESTSTAYMELSSLRSEDTAVYYCARDMYYDFATGTGGPEDDLYPQGELNDGYRIEVVPADDAFDIWGQGTLVTVSS
VL: B3 VL with S26I, E30G, D31K, N52D, F53H, G90A, T94R, S95G, L100V
In the case of B16, the “antagonist activity” value [1] is reported as over 20%.

B17: CRTH2-8 (antibody, V domains shown)
VH: QVQLVQSGAEVKKPGSSVKVSCKASGGTFTDYAISWVRQAPGQGLEWMGGIIPFFGSPNYAQKFQGRVTITADESTSTAYMELSSLRSEDTAVYYCARDMYYDFAAGLEGTITEVFDEEGHQGGTEVVPADDAFDIWGQGTLVTVSS
VL: B3 VL with E30G, D31K, F53N, K54Q, S97T, A98S, A99V, L100V
In the case of B17, the “antagonist activity” value [1] is reported as over 20%.
